Tests used:
[1] = substrate: Nc1nc2c(c(=O)[nH]1)N1CN(c3ccc(C(=O)N[C@@H](CCC(=O)O)C(=O)O)cc3)C[C@H]1CN2; test: NADH-CH2-H4folate oxidoreductase assay, steady-state; type: biochemical, Escherichia coli; details: other: 1000 μM NADH, fit to eq 6, anaerobic, 25 °C, pH 7.2
[2] = substrate: Nc1nc2c(c(=O)[nH]1)N1CN(c3ccc(C(=O)N[C@@H](CCC(=O)O)C(=O)O)cc3)C[C@H]1CN2; test: purified protein, by the assay type; details: other: 500 μM NADH, anaerobic, 25 °C, pH 7.2

B1: Phe223Leu MTHFR (Escherichia coli K-12; F223L) (protein)
chain: MSFFHASQRDALNQSLAEVQGQINVSFEFFPPRTSEMEQTLWNSIDRLSSLKPKFVSVTYGANSGERDRTHSIIKGIKDRTGLEAAPHLTCIDATPDELRTIARDYWNNGIRHIVALRGDLPPGSGKPEMYASDLVTLLKEVADFDISVAAYPEVHPEAKSAQADLLNLKRKVDAGANRAITQFFFDVESYLRFRDRCVSAGIDVEIIPGILPVSNFKQAKKLADMTNVRIPAWMAQMFDGLDDDAETRKLVGANIAMDMVKILSREGVKDFHFYTLNRAEMSYAICHTLGVRPGL
With B1 the Km [1] was 8 ± 2 µM.

B2: Phe223Ala MTHFR (Escherichia coli K-12; F223A) (protein)
chain: MSFFHASQRDALNQSLAEVQGQINVSFEFFPPRTSEMEQTLWNSIDRLSSLKPKFVSVTYGANSGERDRTHSIIKGIKDRTGLEAAPHLTCIDATPDELRTIARDYWNNGIRHIVALRGDLPPGSGKPEMYASDLVTLLKEVADFDISVAAYPEVHPEAKSAQADLLNLKRKVDAGANRAITQFFFDVESYLRFRDRCVSAGIDVEIIPGILPVSNFKQAKKAADMTNVRIPAWMAQMFDGLDDDAETRKLVGANIAMDMVKILSREGVKDFHFYTLNRAEMSYAICHTLGVRPGL
Work on B2 yielded a Km [2] of 93 ± 16 µM.
